Changes are numbered by the printed parent chain. In names and notes the source's numbering stands.
B1: recombinant human cardiac (ventricular) myosin regulatory light chain, wild type (natural protein)
chain: MAPKKAKKRAGGANSNVFSMFEQTQIQEFKEAFTIMDQNRDGFIDKNDLRDTFAALGRVNVKNEEIDEMIKEAPGPINFTVFLTMFGEKLKGADPEETILNAFKVFDPEGKGVLKADYVREMLTTQAERFSKEEVDQMFAAFPPDVTGNLDYKNLVHIITHGEEKD
B2: recombinant human cardiac (ventricular) myosin regulatory light chain, A13T mutant (natural protein)
chain: B1 chain with A13T

Assays:
[1] = target: pyrene-labelled rabbit skeletal F-actin (rabbit) (UniProt P68135); test: other fluorescence titration
[2] = target: RLC-depleted porcine cardiac myosin (porcine) (UniProt P79293); test: co-sedimentation

| Molecule | Kd [1] [nM] | stoichiometry N [1] | Kd [2] [µM] |
| --- | --- | --- | --- |
| A13T-RLC-reconstituted porcine cardiac myosin (from UniProt P79293 1-1935; P10916 1-166) (complex) | 24.4 | 0.9 | – |
| WT-RLC-reconstituted porcine cardiac myosin (from UniProt P79293 1-1935; P10916 1-166) (complex) | 18.9 | 0.8 | – |
| B1 | – | – | 2.92 |
| B2 | – | – | 8.14 |
